Source: the DeepSol protein solubility set

Assay: soluble on expression in E. coli; label from the status in PepcDB or PDB records

Sequence | soluble on expression in E. coli
MSLSQSLWQRLFNHRQQTKQAVLILGSGRSGTSVMTKCVNLMGISLGTDNLLAPSKRINPKGYFENKDVINIHKSLGSRIRYRPAFKDYYDSPKIKKDRAALTTYLRNFFENEQYLAIKDPRMNDYIELWQRVLADVEVQPAEIVLLRNPMDVVNSNERAWHRDTTLAMRQWQVRTLLSLRDTDREHRILVTYEDLFGQTLTTLKRIATQFNLPWTSDEAALQAQIDDFIDPALQKSDSGENLADFEARTDVKPDVKALYLLGRQAAADPDYFASAEFQQRIDEMTDEYLAKYGALYRDFNEGHHHHHH | soluble
MSLSRGRLKIAVPRLQRVANFDDLDPLVAEPDIDLQWIQPGSPIPADVDVVVLPGSKATRTELDLMRREGWDIDIHAHVRRGGRVVGLCAGFQMLGKVVRDPQGIEGPAGETAGLGLLDIETEISGDKRLIEIDAVDRISGCRVVGYEMHMGRTTGAGLARPWLRLEEGGSERAEGAVSADGRVSGGYLHGIFGGDAFRSAWLAQIGAASSGLDFERRVEETLDALADHCESNLDLDALLALAREGHHHHHH | soluble
MSLSSPNILLTRIDNRLVHGQVGVTWTSTIGANLLVVVDDVVANDDIQQKLMGITAETYGFGIRFFTIEKTINVIGKAAPHQKIFLICRTPQTVRKLVEGGIDLKDVNVGNMHFSEGKKQISSKVYVDDQDLTDLRFIKQRGVNVFIQDVPGDQKEQIPDEGHHHHHH | soluble
MSLSTDDTLWREFLQVWPLERLREMTLAEYTTAGDKDCFVYWLEFRLVDYGSIAGGSAFKFAIFSRKETGAREGDTSLAYDDRYGWYRRFGTSPEEAFQTIRGHVVAVAEAARDGRLDEIDNSPLGAAYRWKIAFHYQPLRNPSTPCVYVRKPLLHFLGLSAADTTTPQSELYQALARLRQADESIFVFSERLWKDWVADTPFVVKLSEGAIKHGYLPVNLISAPFPETMYGGKTPNEAADVAHFRTDTGLEFDTDLRVSSPGSARLRHRLGGYFEDIGAAAGDLITLTQDGDGTYLLSSKLAVHAIGPTASAATITARASVKEAAAVRPPLNQILFGPPGTGKTYEAIEKALEILDPSFLLQLGDDESNERRRALKRRYDELAKEGLVQFVTFHQSFSYENFVEGLSASSDPDTKQVRYEVEDGVFKELCESARTRLVRRSDDAPLELSGRRIWKLSLGDSITEGHIFEECMEKGLALMGFGNNADFSQCQSREDIQKMFAASGEPLSLGAYPITAIKTFVCQMKLGDLIVVSEGNLKFRAIGEITGDYQLLPRDSDTYSQARPVRWLRGYKPALPYGALMENRFSQMTVYELRAGSIDHDKFRELLKSECIATGADRPHVLIIDEINRGNVSRIFGELITLIEPSKRSGAAEALEVLLPYSKDPFSVPDNVYLIGTMNTADRSLAGLDIALRRRFDFVEMAPRPDKLTGVKVAEIDISAVLETMNRRIEVLLDREHRLGHAYFMSLENSNDLSRLSNIFRQQIIPLLQEYFFEDWQRIAWILNDHRKDERFRFIVPAPYSVDSLFGDTGQVAQDSKAWRMNEEAFHKPQSYLGIVGDGKEGHHHHHH | not soluble
MSLSTEPLASRMRPKNIDEIISQQHLVGPRGIIRRMVDTKKLTSMIFYGPPGIGKTSIAKAISGSTQYKFRQLNAVTNTKKDMQLVVEEAKMSGQVILLLDEIHRLDKAKQDFLLPHLENGKIVLIGATTSNPYHAINPAIRSRAQIFELYPLNDEDVRQALTRAIEDDENGLKTYQPKIDEDAMTYFSTQSQGDVRSALNALELAVLSADNDKDGYRHVTLQDAKDCLQKGAFVSDKDGDMHYDVMSAFQKSIRGSDVNAALHYLARLIEAGDLPTIVRRLLVISYEDIGLASPNAGQRTLAAIESAERLGLPEARIPLSQAVIELCLSPKSNSAMSAIDSALSDIRNGHVGQIPNHLKDGHYQGAKDLGRSIGYKYPHQYVNGYVSQQYLPDKLKNKIYYEPKTTSKSEQQLKEIYNNLLKEGHHHHHH | soluble
MSLSTHYHAHKPNVPIIMEDVFGWVREGNAFQVRVWLDDHEHDLNVGDDHAFSLLHWAAKGGHVAIAEMLLSRGARVNSTNMGDDTSLHLAAAHGHRQIVVKLLSRKADVNATNEHGMTPLHYACFWGYEQIAEDLISCGAAVNVCNKKGMTPLDVCQPMCKNTILEIAQEHGQSPNDRVPFKDTTWKGTKSRTRDATLSRYTGVDVSSLNLITKIAESHSGELWRGKWQGNDIVARILNVQEVTARISRDFQTEFPALRIFAHPNICAVLAAANQPPNLVIISQYMPFGSLYNVLHEQSSVVIDHGQAVRFALDIARGMSYLHSLDPMLLRFYLSSKHVVVDEELTAKLSMADTKFSFQEVGKAYSPAWMSPEALSRAPEDLNIRAADMWSFAILLWELNTREVPFSDLPPMECGMKIALEGLRVHIPPGIARNMNRLMNICMNEDPGRRPNFDQIIPILERMIL | not soluble
MSLSTIDLHVHSNYSDGIHPPADLVKMAAERGLVAIAIADHDTVDGIDEALIAGARLGVEVVPAVELSAEHGRYRDMHILGYHLDHRDPRLVDMLAEFRINREIRGRAIVDKINQRLADGRKPLLSYDEVLNLAEGAVGRPHIGRMLIERGYARNMEDAFRRYLIPCNVPKRYIPAGDAITEIRRAGGVAVLAHPITVSDDRQVLRGIVSELVALGLDGIEVFNNMCYKDDMLFLEFLCRESGLLMTGGSDFHGFEDDVEIGSGRGGLAVSHRLAEAVKNLAESRRITPPGSRTEGHHHHHH | soluble
MSLSTIGSMMSIYSEAGDFGNIFVTGRIAFSLKYEQQTQSLVVHVKECHQLAYADEAKKRSNPYVKTYLLPDKSRQGKRKTSIKRDTVNPLYDETLRYEIPESLLAQRTLQFSVWHHGRFGRNTFLGEAEIQMDSWKLDKKLDHCLPLHGKISAESPTGLPSHKGELVVSLKYIPASKTPVGGDRKKSKGGEGGELQVWIKEAKNLTAAKAGGTSDSFVKGYLLPMRNKASKRKTPVMKKTLNPHYNHTFVYNGVRLEDLQHMCLELTVWDREPLASNDFLGGVRLGVGTGISNGEVVDWMDSTGEEVSLWQKMRQYEGHHHHHH | not soluble
MSLSVAIRVKDLTKKYKLYQKRSERLANAFGKEKNIKEFYALKGVSFEISKGECVGIIGHNGAGKSTLLKLLTGVAFPTSGEIEINGRLASMLELGSGFNPELTGMENIYFNGSLNGLTKEEIDGKLKDILEFADIGNFIEQPVKNYSSGMFARLAFAVAINVDPDILIVDEILSVGDVGFQVKCMEKFNEFKKKGKTILYVSHGLGTVKKFCDRAIWLQKGEVVDDGNSVIVVERYYNLNFNPANIEQLKDHKSDIINSIAVKSNTKNVEYLEKLDLEVEYDLISNDLKDPNIVLEFRKTDYEPGTTRGNDQFVCGINSKDNIKNIPFNLGVNKLKVSLNKVNLVAGVYYIDFVLRDGEEEVYRKINGYSFTLNEGHHHHHH | soluble
MSLTARSVVLSVLLGAHPAWATASELIQLTADFGIKETTLRVALTRMVGAGDLVRSADGYRLSDRLLARQRRQDEAMRPRTRAWHGNWHMLIVTSIGTDARTRAALRTCMHHKRFGELREGVWMRPDNLDLDLESDVAARVRMLTARDEAPADLAGQLWDLSGWTEAGHRLLGDMAAATDMPGRFVVAAAMVRHLLTDPMLPAELLPADWPGAGLRAAYHDFATAMAKRRDATQLLEVTEGHHHHHH | soluble
MSLTDQKPVPVFDGHNDVLLRLWRSGNTSPETLLIEGDTVGHIDLPRARKGGLAGGLCAIYVPSPSMEKDANGDFSTPTEADALKATLGMAALLFRAEKQSAGALKVCRTAADIRSAMAEGAFASVFHIEGAEAIGDDLDALHVLHEAGLRTLGPVWSRPNIFAYGVPFRFPSTPDIGPGLTDTGKRLVKTCNELKIMVDLSHMNEQGFWDIAKISDAPLVASHSNAYALCNHSRNLTEGHHHHHH | soluble
MSLTDRIRRLRQESFDTQPSLSIERALIETEFYKENEGKYPIPILRALNFLEICKRKTIYIGEDELIVGERGPRPKAVSTFPELTCHSVEDLHVLNTRELQRYTISQEDIDTYEREVIPYWKGRTQRERIFNHVPKEWKEAYEVGMFTEFMEQRAPGHTSLDGKVYQHGMLDLKERIAHELKNLDFMNDPEATDKQEELTAMSISCDAAIIFAERHAELAEKMAGQETDPKRKEELKKIAEICRWVPAHAPRTYWEAIQMYWFVHLGTITELNGWDAMNPGHFDQHLAPFYEKDLEEGILTRAEAKELMSCFFIKVNNQTAPPKVGITAKESGTYNDFTNLNIGGIKRDGSNGVSEVSYIMLETVDDLHLLQPGSALHISVCTPERFLREGCKVIRKGYGYPSVFNPDTYVMELMRQGKTPEDAREGGCSGCIEVGAFGKEAYILTGYLNVPKILEVTLHNGTDPVSGKKVGLVTGDPCTFRSYEALYDAFLKQIHYFVDMKVRVSNYIDRMFAKYAPATFLSLFIDDCIAKGKDYYNCGPRYNTSYIQCTGLGTITDSLSVLKKHVFEERKFNMEQIIHATDTNFEGQEAMRQFILNRTPFFGNDDEYADRIAIQIFNDLYDAIEGKPNTKGECFHLNMLSTTCHVYFGKMMNATPNGREGHHHHHH | soluble
MSLTDSFTVRSIEGVCFRYPLATPVVTSFGKMLNRPAVFVRVVDEDGVEGWGEAWSNFPAPGAEHRARLINEVLAPGLVGRKLENPAQAFEVLSKGTEVLALQCGEPGPFAQAISGIDLALWDLFARRRNLPLWRLLGGQSSKIKVYASGINPGGAAQTAEAALKRGHRALKLKVGFGAETDIANLSALLTIVGAGMLAADANQGWSVDQALEMLPRLSEFNLRWLEEPIRADRPREEWRKLRANAKMPIAAGENISSVEDFEAALGDDVLGVIQPDIAKWGGLTVCVELARQILRVGKTFCPHYLGGGIGLLASAHLLAAVGRDGWLEVDANDNPLRDLFCGPVADVREGTIELNQNPGLGIVPDLSAIERYRSIEGHHHHHH | not soluble
MSLTFELYSGATFFRSRSAATKKVRDMQKERLKYVQEVYKVLATYVNFPKVCLPELIEKSIYEITEEEIVKKAEELRKIWGLDLISPVPNLIQLAEQNGVIISEANMSNPTLDAVSRWMIGRPFIMLTDNHESAVRRRFNVAHELGHILLHNGVESIHEYSQTELKNIIEYQANLFAAHFLLPSAAFSDSLLSISLEYYIDLKKYWKVSLQSMIQKIYTLALINDDQRLYLNKRIAKNKWKTKEPYDEQLTIEQPEVFQKVYHMILEHQVIPASQLNQAFKLPKEEIEKILGTAIQTEQDKTEIVLELLRSNKEGHHHHHH | soluble
MSLTFSILAHDPETGAIGGAAATGSLCVGGWVLRGDLNAGMSASQGAAPSTFWGEEVLQHLRDGSHPEDAVNHVTSQDSGRAYRQLAAMDLLGNAAAFTGSENQDIKGSVTFASGIASGNMLGDNSVLGAMTEAFVASDLTFERRLLAALIAAEGAGSDFRGLLSAAMLVLHPDRPPVTLRIDYHPDNPIGALEQLYQKATTGDYADWARQVPVLSDKERILDEGHHHHHH | soluble
MSLTGLFEPIAPQAPLAERLRPKSLDEVVGQRHLLGEGKPLRLAFTSGKLPSMILWGPPGVGKTTLARLIANTADAEFIPLSAVLAGIKDIREAVERAEHTLQQSGRRTILFVDEVHRFNKGQQDAFLPFVESGLITFIGATTENPSFEVNSALLSRAQVFVLNALSEDELKQLLERGKQEMQLDIPLTPEVVEQVLGYADGDARRLLNFVEGLFNAALTAGVTKIDAEFLQSTMASKLRRFDKGGEAFYDQISALHKSVRGSNPDAALYWFLRMLDGGADPLYLGRRIVRMAVEDIGIADPRAQTMALEACQIYERLGSPEGELALSNAVIYLAVAAKSNAAYMAYNQAKAFVASDKSRPVPLHLRNAPTKLMKDLNYGKEYRYAHNEPGAYAAGEDYFPDGLEAIQFYVPTQRGLEGKISEKMAHLRALDEEARSKEGHHHHHH | soluble
MSLTGMLKRKVIVVSGVGPGLGTTLAHRCARDGADLVLAARSAERLDDVAKQIIDTGRRAVAVRTDITDDDDVSNLVQATLAAYGKADVLINNAFRVPSMKPLAGTTFEHIRDAIELSALGTLRLIQAFTPALAQSHGAIVNVNSMVIRHSQPKYGTYKMAKSVLLAMSHSLATELGEQGIRVNSVAPGYIWGDTLKSYFDHQAGKYGTTVDQIYQATAANSDLKRLPTEDEVASAILFLASDLASGITGQTLDVNCGEYHTEGHHHHHH | soluble
